In patent US20100077492A1:

Molecular target: human PC4 protein (full length wild type) (human) (UniProt P53999)
Assay: cell-based or functional assay

With “purified human XPG (without HMK tag) (from UniProt P28715 1-1186) (enzyme)” the PC4 binding to a 10-nt DNA bubble substrate in an electrophoretic mobility shift assay after pre-incubation of the DNA with XPG was 44 nM.
